Square brackets hold non-standard residues; d marks the D form. Peptide text beside a SMILES is read from it. * marks the point of attachment. Biotin = O=C1N[C@H]2[C@H](CS[C@H]2CCCCC(=O)*)N1; Phe(4-tBu) = CC(C)(C)c1ccc(C[C@H](N)C(=O)O)cc1; Bip = N[C@@H](Cc1ccc(-c2ccccc2)cc1)C(=O)O; pT = C[C@@H](OP(=O)(O)O)[C@H](N)C(=O)O; 2Nal = N[C@@H](Cc1ccc2ccccc2c1)C(=O)O; Bta = N[C@@H](Cc1csc2ccccc12)C(=O)O; Tic = O=C(O)[C@@H]1Cc2ccccc2CN1; 2Thi = N[C@@H](Cc1cccs1)C(=O)O; Cha = N[C@@H](CC1CCCCC1)C(=O)O; Tle = CC(C)(C)[C@H](N)C(=O)O; NMeA = CN[C@@H](C)C(=O)O
B1: peptide 14 (peptide)
peptide: Ac-K(Biotin)AA[Cha][pT][Tic][2Nal]Q-NH2
SMILES: CC(=O)N[C@@H](CCCCNC(=O)CCCC[C@@H]1SC[C@@H]2NC(=O)N[C@@H]21)C(=O)N[C@@H](C)C(=O)N[C@@H](C)C(=O)N[C@@H](CC1CCCCC1)C(=O)N[C@H](C(=O)N1Cc2ccccc2C[C@H]1C(=O)N[C@@H](Cc1ccc2ccccc2c1)C(=O)N[C@@H](CCC(N)=O)C(N)=O)[C@@H](C)OP(=O)(O)O
B2: peptide 1 (peptide)
peptide: Ac-K(Biotin)AA[Phe(4-tBu)][pT]P[2Nal]Q-NH2
SMILES: CC(=O)N[C@@H](CCCCNC(=O)CCCC[C@@H]1SC[C@@H]2NC(=O)N[C@@H]21)C(=O)N[C@@H](C)C(=O)N[C@@H](C)C(=O)N[C@@H](Cc1ccc(C(C)(C)C)cc1)C(=O)N[C@H](C(=O)N1CCC[C@H]1C(=O)N[C@@H](Cc1ccc2ccccc2c1)C(=O)N[C@@H](CCC(N)=O)C(N)=O)[C@@H](C)OP(=O)(O)O
B3: peptide 10 (peptide)
peptide: Ac-K(Biotin)AA[2Thi][pT][NMeA][2Nal]Q-NH2
SMILES: CC(=O)N[C@@H](CCCCNC(=O)CCCC[C@@H]1SC[C@@H]2NC(=O)N[C@@H]21)C(=O)N[C@@H](C)C(=O)N[C@@H](C)C(=O)N[C@@H](Cc1cccs1)C(=O)N[C@H](C(=O)N(C)[C@@H](C)C(=O)N[C@@H](Cc1ccc2ccccc2c1)C(=O)N[C@@H](CCC(N)=O)C(N)=O)[C@@H](C)OP(=O)(O)O
B4: peptide 5 (peptide)
peptide: Ac-K(Biotin)AA[Bip][pT]P[Bta]Q-NH2
B5: peptide 6 (peptide)
peptide: Ac-K(Biotin)AA[Bip][pT]P[2Nal]Q-NH2
B6: peptide 2 (peptide)
peptide: Ac-K(Biotin)AA[2Thi][pT]P[Bip]Q-NH2
B7: peptide 11 (peptide)
peptide: Ac-K(Biotin)AA[Cha][pT][NMeA][2Nal]Q-NH2
B8: peptide 12 (peptide)
peptide: Ac-K(Biotin)AAF[pT][NMeA][Bta]Q-NH2
SMILES: CC(=O)N[C@@H](CCCCNC(=O)CCCC[C@@H]1SC[C@@H]2NC(=O)N[C@@H]21)C(=O)N[C@@H](C)C(=O)N[C@@H](C)C(=O)N[C@@H](Cc1ccccc1)C(=O)N[C@H](C(=O)N(C)[C@@H](C)C(=O)N[C@@H](Cc1csc2ccccc12)C(=O)N[C@@H](CCC(N)=O)C(N)=O)[C@@H](C)OP(=O)(O)O
B9: peptide 3 (peptide)
peptide: Ac-K(Biotin)AA[Bta][pT]P[Cha]Q-NH2
B10: peptide 9 (peptide)
peptide: Ac-K(Biotin)AA[Phe(4-tBu)][pT][NMeA][2Nal]Q-NH2
B11: peptide 13 (peptide)
peptide: Ac-K(Biotin)AA[Phe(4-tBu)][pT][Tic][Bta]Q-NH2
SMILES: CC(=O)N[C@@H](CCCCNC(=O)CCCC[C@@H]1SC[C@@H]2NC(=O)N[C@@H]21)C(=O)N[C@@H](C)C(=O)N[C@@H](C)C(=O)N[C@@H](Cc1ccc(C(C)(C)C)cc1)C(=O)N[C@H](C(=O)N1Cc2ccccc2C[C@H]1C(=O)N[C@@H](Cc1csc2ccccc12)C(=O)N[C@@H](CCC(N)=O)C(N)=O)[C@@H](C)OP(=O)(O)O
B12: peptide 8 (peptide)
peptide: Ac-K(Biotin)AA[2Nal][pT]P[Cha]Q-NH2
B13: peptide 7 (peptide)
peptide: Ac-K(Biotin)AA[2Nal][pT]P[Tle]Q-NH2

Experiments:
[1] = target: T1, hPin1 (Homo sapiens, UniProt Q13526); test: Protease free PPIase assay, hPin1; assay type: biochemical; details: for IC50: blockade of PPIase activity of full-length hPin1, protease free assay, 10° C., read-out: IC50
T1 construct: The protease free assay ensures reliable measurement of IC50 values for the full-length hPin1
Protocol: Protein concentrations were determined using the extinction coefficient ε280=21030 M^−1 cm^−1 for hPin1, ε280=6979 M^−1 cm^−1 for the hPin1 PPIase domain, ε280=21030 M^−1 cm^−1 for XlPin1, ε280=8250 M^−1 cm^−1 for hPar14 and ε280=8250 M^−1 cm^−1 for hCyp18. Extinction coefficients were calculated using the program ProtParam Tool at ExPASy (SIB, Switzerland). All measurements were done at 10° C. in 35 mM Hepes buffer (pH 7.8).
The determination of the kinetic constants of the cis/trans isomerization within the protease-free system was performed using fluorescence based measurements (Garcia-Echeverria et al., 1993, Zhang et al., 2002) on a Hitachi F-3010 fluorescence spectrophotometer with H-Abz-Ala-Glu-Pro-Phe-NH-Np (SEQ ID NO: 2) as substrate. The substrate stock solution was 12 mM in anhydrous trifluoroethanol/0.55 M LiCl. Measurements were initiated by addition of the substrate (final concentration 10 μM) to a pre-incubated (15 min) mixture of 8.8 nM hPin1 or 7.1 nM XlPin1 and respective inhibitory peptide of desired concentrations. The excitation wavelength was 320 nm (spectral bandwidth 3 nm) and emission was detected at 420 nm (spectral bandwidth 10 nm).
Data analysis was performed by single-exponential nonlinear regression using the SigmaPlot Scientific Graphing System Version 5.00 (Jandel Corp.). The apparent first order rate constant kobs was computed by nonlinear regression of the progress curve obtained for the respective measurement. The rate constant k0 was determined in the absence of Pin1. The first order rate constants kenz was calculated from the equation kenz=kobs−k0. IC50 and Ki values were determined by fitting the first order rate constants kenz against the concentration of the inhibitory peptide by nonlinear regression according to Schutkowski et al., 1995 or a model for tight binding inhibitors (Morrison, 1969).
The protease free assay ensures reliable measurement of IC50 values for the full-length hPin1.

[2] = target: full-length hPin1 (human, UniProt Q13526 1-163); test: cell-based or functional assay
Sequence of full-length hPin1 (Q13526 whole entry): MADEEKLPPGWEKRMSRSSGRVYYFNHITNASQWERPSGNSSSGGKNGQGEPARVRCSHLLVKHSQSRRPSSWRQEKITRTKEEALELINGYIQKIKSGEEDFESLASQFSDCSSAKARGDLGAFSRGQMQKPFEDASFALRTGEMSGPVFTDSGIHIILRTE

T1 sequence (Q13526 whole entry): as above

Molecule	IC50 [1]	fold decrease of inhibition, prolyl residue at Yaa versus peptide 15 ([1]; compared with peptide 15)	IC50(µM), blockade of the PPIase activity of hPin1, protease free PPIase assay [2]
CC(=O)N[C@@H](CCCCNC(=O)CCCC[C@@H]1SC[C@@H]2NC(=O)N[C@@H]21)C(=O)N[C@@H](C)C(=O)N[C@@H](C)C(=O)N[C@@H](Cc1ccc(-c2ccccc2)cc1)C(=O)N[C@H](C(=O)N1CCC[C@H]1C(=O)N[C@@H](Cc1csc2ccccc12)C(=O)N[C@@H](CCC(N)=O)C(N)=O)[C@@H](C)OP(=O)(O)O [Peptide 5] (Ac-K(Biotin)AA[Bip][pT]P[Bta]Q-NH2)	15 µM	–	–
CC(=O)N[C@@H](CCCCNC(=O)CCCC[C@@H]1SC[C@@H]2NC(=O)N[C@@H]21)C(=O)N[C@@H](C)C(=O)N[C@@H](C)C(=O)N[C@@H](Cc1ccc2ccccc2c1)C(=O)N[C@H](C(=O)N1CCC[C@H]1C(=O)N[C@@H](CC1CCCCC1)C(=O)N[C@@H](CCC(N)=O)C(N)=O)[C@@H](C)OP(=O)(O)O [Peptide 8] (Ac-K(Biotin)AA[2Nal][pT]P[Cha]Q-NH2)	> 50 µM	–	–
CC(=O)N[C@@H](CCCCNC(=O)CCCC[C@@H]1SC[C@@H]2NC(=O)N[C@@H]21)C(=O)N[C@@H](C)C(=O)N[C@@H](C)C(=O)N[C@@H](Cc1ccc2ccccc2c1)C(=O)N[C@H](C(=O)N1CCC[C@H]1C(=O)N[C@H](C(=O)N[C@@H](CCC(N)=O)C(N)=O)C(C)(C)C)[C@@H](C)OP(=O)(O)O [Peptide 7] (Ac-K(Biotin)AA[2Nal][pT]P[Tle]Q-NH2)	> 50 µM	–	–
CC(=O)N[C@@H](CCCCNC(=O)CCCC[C@@H]1SC[C@@H]2NC(=O)N[C@@H]21)C(=O)N[C@@H](C)C(=O)N[C@@H](C)C(=O)N[C@@H](Cc1ccccc1)C(=O)N[C@H](C(=O)N(C)[C@@H](C)C(=O)N[C@@H](Cc1csc2ccccc12)C(=O)N[C@@H](CCC(N)=O)C(N)=O)[C@@H](C)OP(=O)(O)O [Peptide 12] (Ac-K(Biotin)AAF[pT][NMeA][Bta]Q-NH2)	20 µM	–	–
CC(=O)N[C@@H](CCCCNC(=O)CCCC[C@@H]1SC[C@@H]2NC(=O)N[C@@H]21)C(=O)N[C@@H](C)C(=O)N[C@@H](C)C(=O)N[C@@H](Cc1csc2ccccc12)C(=O)N[C@H](C(=O)N1CCC[C@H]1C(=O)N[C@@H](Cc1ccc2ccccc2c1)C(=O)N[C@@H](CCC(N)=O)C(N)=O)[C@@H](C)OP(=O)(O)O [Peptide 4] (Ac-K(Biotin)AA[Bta][pT]P[2Nal]Q-NH2)	20 µM	100 fold	–
Ac-Lys(Nε-biotinoyl)-Ala-Ala-Xaa-Thr(PO3H2)-Yaa-Zaa-Gln-NH2 with Xaa Bth, Yaa Pro, Zaa Cha [Peptide 3]	> 50 µM	–	–
CC(=O)N[C@@H](CCCCNC(=O)CCCC[C@@H]1SC[C@@H]2NC(=O)N[C@@H]21)C(=O)N[C@@H](C)C(=O)N[C@@H](C)C(=O)N[C@@H](Cc1cccs1)C(=O)N[C@H](C(=O)N(C)[C@@H](C)C(=O)N[C@@H](Cc1ccc2ccccc2c1)C(=O)N[C@@H](CCC(N)=O)C(N)=O)[C@@H](C)OP(=O)(O)O [Peptide 10] (Ac-K(Biotin)AA[2Thi][pT][NMeA][2Nal]Q-NH2)	15 µM	–	–
B1	–	–	25 µM
B2	–	–	30 µM
B3	–	–	15 µM
B4	–	–	15 µM
B5	–	–	18 µM
B6	–	–	22 µM
B7	–	–	7 µM
B8	–	–	20 µM
B9	–	–	> 50 µM
B10	–	–	10 µM
B11	–	–	8 µM
B12	–	–	> 50 µM
B13	–	–	> 50 µM
